Patent US20160032292, “Aptamer-Guided Gene Targeting” (Georgia Tech Research Corporation, published 2016)

Columns and labels:
[1] = target: T1, I-SceI homing endonuclease (UniProt P03882 P03882:1-235); assay: EMSA; negative control; described as non-binding random control; 3 uM I-SceI, Mg2+, Zn2+, gel result not shown; settings: tags: provided by F. Gimble (Purdue University), dialyzed; label: 5' 32P
T1 sequence: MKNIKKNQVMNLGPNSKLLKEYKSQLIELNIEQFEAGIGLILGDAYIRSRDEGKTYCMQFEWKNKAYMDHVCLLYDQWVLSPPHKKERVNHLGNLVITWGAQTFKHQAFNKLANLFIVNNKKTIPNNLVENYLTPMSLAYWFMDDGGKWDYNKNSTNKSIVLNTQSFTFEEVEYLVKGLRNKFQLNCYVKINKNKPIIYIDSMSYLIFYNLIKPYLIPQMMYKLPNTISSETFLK
Procedure: The internal region was chosen using a random DNA sequence generator with a specified GC content of 50% (http://www.faculty.ucr.edu/˜mmaduro/random.htm). I-SceI was dialyzed before running the EMSA gels in Run Buffer 1 (RB1), 50 mM Tris-HCl at pH 8.2, as previously described. Bovine serum albumin (BSA) was purchased as a lyophilized powder through Sigma-Aldrich (St. Louis, Mo.) and was greater than 98% pure. BSA stock of 10 mg/ml was made in RB1 buffer.
The buffer conditions used for binding had several components described previously (22). Each reaction consisted of 2 μL 5×EMSA buffer 1 (100 mM Tris-HCl at pH 8.5, 250 mM NaCl, 10 μM ZnCl₂, 10 mM MgCl₂, 10% glycerol), 1 μL BSA (10 mg/ml), 1 μL freshly prepared 20 mM DTT, and 1 μL 100 mM MgCl₂ for a final buffer concentration of 20 mM Tris-HCl, 50 mM NaCl, 2 μM ZnCl₂, […], 1 mg/ml BSA, […], and 2% glycerol. After mixing these components together, 2 μL of dialyzed I-SceI (total of 3 μM) for each reaction was added, bringing the volume to […]. The radiolabeling of the oligonucleotides had varying efficiencies such that the counts per minute (cpm) measurement of the radioactivity for each labeled oligonucleotide was different. […] The radioactivity in the gel was analyzed by Phosphor Imager (Molecular Dynamics—Typhoon Trio Imager™, GE Healthcare Life Sciences, Pittsburgh, Pa.). […]

[2] = target: T2, I-SceI homing endonuclease (expressed in yeast from GAL1-10 promoter) (UniProt P03882 P03882:1-235); assay: cell_activity; gene correction over C.LEU2.54; BY4742 and 55R5-3C
T2 sequence: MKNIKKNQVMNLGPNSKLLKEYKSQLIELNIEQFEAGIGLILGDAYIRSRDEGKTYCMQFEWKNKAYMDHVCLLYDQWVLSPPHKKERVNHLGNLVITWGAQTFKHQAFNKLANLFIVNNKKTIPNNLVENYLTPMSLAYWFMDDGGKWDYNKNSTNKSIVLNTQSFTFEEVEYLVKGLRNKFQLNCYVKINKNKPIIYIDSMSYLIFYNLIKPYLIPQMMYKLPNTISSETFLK
Procedure: (§1) Sequences of oligonucleotides used for repair can be found in Table 1. Cells from each transformation were diluted appropriately and plated to synthetic complete medium lacking the respective amino acid and containing 2% galactose for I-SceI induction, 2 or 0.2% galactose for HO induction or 2% glucose for I-SceI or HO repression. The exception to this is the experiment to determine the position of the aptamer in the targeting DNA sequence (at the 5′ or 3′ end). For this experiment, I-SceI was induced 3 h by addition of galactose (final concentration 2%) to the liquid YPLac medium before transformation by oligonucleotides, and cells were plated on selective media containing glucose. Viability after transformation was calculated by plating to glucose-containing synthetic complete medium. Viability after transformation for the I-SceI-containing strains was typically 20-40% both on glucose and galactose. […] The frequency of gene correction is based on the number of transformants relative to 10⁷ viable cells that formed a colony on galactose-containing synthetic complete medium (or glucose-containing synthetic complete medium depending on the transformation experiment). Yeast cell culture and standard molecular biology techniques were used as previously described […]

[3] = target: T2, I-SceI homing endonuclease (expressed …); assay: cell_activity; gene correction over non-binding C.TRP5.54 (62500 vs 8950 per 1e7 cells); galactose; settings: aptamer hairpin at 5' end (predicted)
Procedure: For this experiment, I-SceI was induced 3 h by addition of galactose (final concentration 2%) to the liquid YPLac medium before transformation by oligonucleotides, and cells were plated on selective media containing glucose. Viability after transformation was calculated by plating to glucose-containing synthetic complete medium. Viability after transformation for the I-SceI-containing strains was typically 20-40% both on glucose and galactose. […] The frequency of gene correction is based on the number of transformants relative to 10⁷ viable cells that formed a colony on galactose-containing synthetic complete medium (or glucose-containing synthetic complete medium depending on the transformation experiment). Yeast cell culture and standard molecular biology techniques were used as previously described
Therefore, we removed the primer regions surrounding the I-Sce I aptamer sequence in the bifunctional oligonucleotides, and this also allowed us to extend the sequence length of the gene-correction donor part of the bifunctional molecule. Oligonucleotides that contained the aptamer sequences from A4 or A7 at the 5′ end of a DNA sequence containing 54 bases of homology to restore the disrupted trp5 gene (A4.TRP5.54 and A7.TRP5.54, Table 1) were tested in yeast strains FRO-155/156 and FRO-526/527 (T5B and T5 in FIG. 1) for their capacity to restore the functionality of the trp5 gene. […]

[4] = target: T1, I-SceI homing endonuclease; assay: capillary electrophoresis with LIF; binding affinity about 52.49 uM; binding also seen by EMSA; settings: tags: provided by F. Gimble (Purdue University), dialyzed; label: FAM
Procedure: (§2) The protocol for SELEX using capillary electrophoresis (CE) was essentially as described earlier (Berezovski, et al., Nat. Protoc., 1:1359-1369 (2006)), but with a few modifications. Initial calibrations were done with a serial dilution of the aptamer library in RB1. The free DNA run time with 100 nM of the library was determined (FIG. 8A). […] CE was done using a Beckman Coulter (Atlanta, Ga., USA) P/ACE MDQ with laser-induced fluorescence (LIF) detection. The LIF was composed of a 488-nm air-cooled argon ion laser along with an on-board detector. CE runs were carried out with a voltage of 10 kV. The first round of selection began after determination of the collection window based on the bulk affinity analysis. For the initial round of in vitro selection, the DNA library (5 μl at 200 μM) was mixed with 5 μl of selection buffer 3 (SB3) (100 mM Tris-HCl at pH 8.2, 200 mM NaCl and 10 mM MgCl₂) for a final concentration of 100 μM DNA library, 50 mM Tris-HCl at pH 8.2, 100 mM NaCl and 5 mM MgCl₂. This mixture was heated in the BioRad iCycler™ to 94° C. for 1 min, and then cooled to 20° C. at a rate of 0.5° C./s. After the folding of the DNA library, 5 μl of 200 nM I-SceI dissolved in selection buffer 1 (SB1) (50 mM Tris-HCl at pH 8.2, 100 mM NaCl and 5 mM MgCl₂) was added to 5 μl of the DNA-SB3 mixture to make the final volume to 10 μl. […]

[5] = target: T2, I-SceI homing endonuclease (expressed …); assay: cell_activity; gene correction over C.TRP5.40 (202 vs 13.9); 32-fold with PAGE-purified oligos
[6] = target: T1, I-SceI homing endonuclease; assay: capillary electrophoresis with LIF; binding affinity about 3.16 uM; 50 nM A7, 1 uM I-SceI (FIG. 9D); binding also seen by EMSA; settings: tags: provided by F. Gimble (Purdue University), dialyzed; label: 5' FAM; hairpin with 4-nt loop (mfold prediction)
Procedure: as §2

[7] = target: T2, I-SceI homing endonuclease (expressed …); assay: cell_activity; gene correction over C.ADE2.54; BY4742 and 55R5-3C
Procedure: as §1

[8] = target: T2, I-SceI homing endonuclease (expressed …); assay: cell_activity; gene correction over C.TRP1.54; 55R5-3C
Procedure: as §1

B1: P1-r-P2 (ssDNA)
DNA: CTTCTGCCCGCCTCCTTCCGGTCGGGCACACCTGTCATACCCAATCTCGAGGCCAGACGAGATAGGCGGACACT
[1]
  binding result: no binding

B2: A7.LEU2.54 (ssDNA)
DNA: GCGGGCGCTGTTGACAGCGGTCAGGTGGATGGGATGCGCTTTCATGGCCCTACAACATGAGCCACCATTGCCTATTTGGTCCTTGGATAA
[2]
  activity: 2 fold

B3: A7.TRP5.54 (ssDNA)
DNA: GCGGGCGCTGTTGACAGCGGTCAGGTGGATGGGATGGGAAAAGGGTTTTGATGAAGCTGTCGCGGATCCCACATTCTGGGAAGACTTCAA
[3]
  activity: 7 fold

## TGAAGGCCAAAACGGCTGAATCGATAGT (ssDNA) [A4]
[4]
  Kd: 52.5 µM

B4: A7.TRP5.40 (ssDNA)
DNA: GCGGGCGCTGTTGACAGCGGTCAGGTGGATGGGATGGGTTTTGATGAAGCTGTCGCGGATCCCACATTCTGGGAAG
[5]
  activity: 15 fold

## GCGGGCGCTGTTGACAGCGGTCAGGTGGATGGGATG (ssDNA) [A7]
[6]
  Kd: 3.16 µM

B5: A7.ADE2.54 (ssDNA)
DNA: GCGGGCGCTGTTGACAGCGGTCAGGTGGATGGGATGGGACATTATACCATTGATGCTTGCGTCACTTCTCAATTTGAAGCTCATTTGAGA
[7]
  activity: 3 fold

B6: A7.TRP1.54 (ssDNA)
DNA: GCGGGCGCTGTTGACAGCGGTCAGGTGGATGGGATGGTGGCAAGAATACCAAGAGTTCCTCGGTTTGCCAGTTATTAAAAGACTCGTATT
[8]
  activity: 2.5 fold
